From patent US20140323392A1 (UNIVERSITY OF UTAH RESEARCH FOUNDATION, published 2014)
Read-outs that look alike come from different tables or passages of the source. Bridges are numbered along the chain shown (N, C = ends). Roman numbers before positions name the chains, in order. Where no end group is shown, it is not given here. [ ]: non-standard residue; d: D form.

B1: PEG4-ΔHP-PIE12-trimer (peptide)
peptide: [dC][dD][dY][dP][dE][dW][dQ][dW][dL][dC][dE][dL]GK
modifications: disulfide 1-10 (inferred); not fully specified (residue 14); also: homotrimer on trimethylolethane-triNHS ester scaffold
B2: N0N(PIE7)2 (peptide)
peptide: Ac-[dK]G[dA][dC][dD][dY][dP][dE][dW][dQ][dW][dL][dC][dA][dA]-NH2
modifications: disulfide 4-13 (inferred); also: dimer, N- to N-terminal link by zero length spacer
B3: N0C(PIE7)2 (peptide)
peptide: Ac-[dK]G[dA][dC][dD][dY][dP][dE][dW][dQ][dW][dL][dC][dA][dA]-NH2
modifications: disulfide 4-13 (inferred); also: dimer linked N- to C-terminal by zero-length spacer
B4: PEG5-(PIE13)2 (peptide)
peptide: Ac-[dH][dP][dC][dD][dY][dP][dE][dW][dQ][dW][dL][dC]K[dL]G[dK]-NH2
modifications: disulfide 3-12 (inferred); not fully specified (residue 13); also: dimer crosslinked by PEG5 via internal Lys
B5: C5C(PIE7-GK)3 (peptide)
peptide 1: Ac-G[dA][dC][dD][dY][dP][dE][dW][dQ][dW][dL][dC][dA][dA]G[dK]-NH2
peptide 2: Ac-G[dA][dC][dD][dY][dP][dE][dW][dQ][dW][dL][dC][dA][dA]G[dK][dK]-NH2
modifications: disulfide I:3-I:12, II:3-II:12 (inferred); also: trimer: C-terminal Lys linked by PEG5 spacers
B6: C0C(PIE7-GK)3 (peptide)
peptide 1: Ac-G[dA][dC][dD][dY][dP][dE][dW][dQ][dW][dL][dC][dA][dA]G[dK]-NH2
peptide 2: Ac-G[dA][dC][dD][dY][dP][dE][dW][dQ][dW][dL][dC][dA][dA]G[dK][dK]-NH2
modifications: disulfide I:3-I:12, II:3-II:12 (inferred); also: trimer, C-terminal Lys residues linked by zero length spacers
B7: PIE7-GK short claw (peptide)
peptide: Ac-G[dA][dC][dD][dY][dP][dE][dW][dQ][dW][dL][dC][dA][dA]G[dK]-NH2
modifications: disulfide 3-12 (inferred); also: linked directly to trifunctional crosslinker TSAT

Key:
Test in all cases: cell-based or functional assay
[1] = target: HIV-1 JRFL envelope glycoprotein gp41 (N-trimer of the prehairpin intermediate) (HIV-1 strain JRFL)
[2] = target: T1, HIV-1 HXB2 envelope glycoprotein gp41 (N-trimer of the prehairpin intermediate) (HIV-1 strain HXB2, UniProt P04578 512-856)
[3] = target: T1, HIV-1 HXB2 envelope glycoprotein gp41 …; remark: listed apart in the source

Binder	IC50, JRFL pseudovirion entry [1] [nM]	IC50, HXB2 pseudovirion entry [2] [nM]	IC50, HXB2 pseudovirion entry [3] [nM]
Ac-[dK][dK]G[dA][dC][dE][dL][dL]G[dW][dE][dW][dA][dW][dL][dC][dA][dA]-NH2 (disulfide 5-16 (inferred)) [D10-p5]	> 25000	9.5	
Ac-[dK]G[dA][dC][dD][dY][dK][dE][dW][dQ][dW][dL][dC][dA][dA]-NH2 (disulfide 4-13 (inferred)) [PIE8]	~110000	1.7	
Ac-[dK]G[dA][dC][dD][dY][dP][dE][dW][dQ][dW][dL][dC][dA][dA]-NH2 (disulfide 4-13 (inferred)) [PIE7]	24000	620	
B1			300
Ac-G[dA][dC][dD][dY][dP][dE][dW][dQ][dW][dL][dC][dA][dA]G[dK]-NH2 (disulfide 3-12 (inferred)) [PIE7-GK]	15800	390	
Ac-G[dA][dC][dD][dY][dP][dE][dW][dQ][dW][dL][dC][dA][dA]G[dK][dK]-NH2 (disulfide 3-12 (inferred)) [PIE7-GKK]	19100	380	
Ac-[dK]G[dA][dC][dD][dY][dP][dE][dW][dQ][dW][dL][dC][dA][dA]G[dK]-NH2 (disulfide 4-13 (inferred)) [K-PIE7-GK]	14800		
Ac-G[dA][dC][dD][dY][dP][dE][dW][dQ][dW][dL][dC][dA][dA]G[dK]-NH2 (disulfide 3-12 (inferred); also: PEG4 attached at the C-terminus) [PIE7-GK-PEG4]	13100	350	
Ac-[dH][dP][dC][dD][dY][dP][dE][dW][dQ][dW][dL][dC][dK][dL]G[dK]-NH2 (disulfide 3-12 (inferred)) [PIE13]	1470	41	
Ac-[dH][dP][dC][dD][dY][dP][dE][dW][dQ][dW][dL][dC][dR][dL]G[dK]-NH2 (disulfide 3-12 (inferred)) [PIE14]	1050	33	
Ac-[dH][dA][dC][dD][dY][dP][dE][dW][dQ][dW][dL][dC][dE][dL]G[dK]-NH2 (disulfide 3-12 (inferred)) [PIE15]	1450	67	
Ac-[dK][dK]G[dA][dC][dE][dS][dP][dE][dW][dR][dW][dL][dC][dA][dA]-NH2 (disulfide 5-14 (inferred)) [2K-PIE1]	> 100000	2.2	
Ac-[dK]G[dA][dC][dD][dY][dP][dE][dW][dQ][dW][dL][dC][dA][dA]-NH2 (disulfide 4-13 (inferred); also: dimer linked N- to C-terminal by PEG9 spacer) [N9C(PIE7)2]	310	0.33	
Ac-G[dA][dC][dD][dY][dP][dE][dW][dQ][dW][dL][dC][dA][dA]G[dK]-NH2 (disulfide 3-12 (inferred); also: dimer, C- to C-terminal link by PEG9 spacer) [C9C(PIE7-GK)2]	220	0.35	
Ac-[dK]G[dA][dC][dD][dY][dP][dE][dW][dQ][dW][dL][dC][dA][dA]-NH2 (disulfide 4-13 (inferred); also: dimer, N- to N-terminal link by PEG5 spacer) [N5N(PIE7)2]	1410	1.1	
Ac-[dK]G[dA][dC][dD][dY][dP][dE][dW][dQ][dW][dL][dC][dA][dA]-NH2 (disulfide 4-13 (inferred); also: dimer linked N- to C-terminal by PEG5 spacer) [N5C(PIE7)2]	300	0.58	
Ac-G[dA][dC][dD][dY][dP][dE][dW][dQ][dW][dL][dC][dA][dA]G[dK]-NH2 (disulfide 3-12 (inferred); also: dimer, C- to C-terminal link by PEG5 spacer) [C5C(PIE7-GK)2]	200	0.36	
B2	1090	0.8	
B3	400	0.53	
Ac-[dH][dP][dC][dD][dY][dP][dE][dW][dQ][dW][dL][dC][dE][dL]G[dK]-NH2 (disulfide 3-12 (inferred); also: dimer, C- to C-terminal link by PEG5 spacer) [C5C(PIE12)2]	14		
B4	15		
Ac-[dK]G[dA][dC][dD][dY][dP][dE][dW][dQ][dW][dL][dC][dA][dA]-NH2 (disulfide 4-13 (inferred); also: trimer linked by PEG9 spacers) [N9N(PIE7)3]	220	0.25	
B5	6.7	0.13	
Ac-[dK][dK]G[dA][dC][dD][dY][dP][dE][dW][dR][dW][dL][dC][dA][dA]-NH2 (disulfide 5-14 (inferred)) [2K-PIE2]		2.6	
B6	16.1	0.12	
Ac-G[dA][dC][dD][dY][dP][dE][dW][dQ][dW][dL][dC][dA][dA]G[dK]-NH2 (disulfide 3-12 (inferred); also: linked to trifunctional crosslinker LC-TSAT) [PIE7-GK long claw]	20.6	0.12	
B7	86.6	0.23	
Ac-[dK]G[dA][dC][dD][dY][dP][dE][dW][dR][dW][dL][dC][dA][dA][dA]-NH2 (disulfide 4-13 (inferred)) [PIE2-AAA]		1.4	
Ac-[dK]G[dA][dC][dD][dY][dP][dE][dW][dR][dW][dL][dC][dA][dA]-NH2 (disulfide 4-13 (inferred)) [PIE2]	66000		
